For experiment [1], the target named is TNFR1 on the surface of cells (HT1080, HeLa, Kym-1) (human) (UniProt P19438). Nature of the experiment: cell-based or functional assay.
For experiment [2] the target is unchanged. In words: cell-based or functional assay. The source holds these as a separate data set.
The target in experiment [3] is human TNFR1-Fc fusion protein (human) (UniProt P19438). In words: ELISA, human TNFR1-Fc. A general note: ELISA stands for enzyme-linked immunosorbent assay.
For experiment [4] the target is unchanged. In words: ELISA, immobilized human TNFR1-Fc.

Where two headings read alike, the source gives them in different places.

Chain of TNFR1 on the surface of cells (HT1080, HeLa, Kym-1) (human) (P19438 30-455): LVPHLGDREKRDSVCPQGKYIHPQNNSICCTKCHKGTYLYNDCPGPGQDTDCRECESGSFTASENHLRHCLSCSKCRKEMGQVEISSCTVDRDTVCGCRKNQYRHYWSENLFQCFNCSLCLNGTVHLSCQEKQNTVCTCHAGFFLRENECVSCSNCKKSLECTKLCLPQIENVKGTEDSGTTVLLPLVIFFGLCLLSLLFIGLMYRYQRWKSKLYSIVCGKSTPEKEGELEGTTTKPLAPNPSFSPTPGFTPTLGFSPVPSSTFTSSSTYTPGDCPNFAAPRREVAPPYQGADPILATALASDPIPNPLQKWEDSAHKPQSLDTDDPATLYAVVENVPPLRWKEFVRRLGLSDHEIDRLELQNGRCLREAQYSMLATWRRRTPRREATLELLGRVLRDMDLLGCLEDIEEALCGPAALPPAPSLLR
Chain of human TNFR1-Fc fusion protein (human) (P19438 30-211): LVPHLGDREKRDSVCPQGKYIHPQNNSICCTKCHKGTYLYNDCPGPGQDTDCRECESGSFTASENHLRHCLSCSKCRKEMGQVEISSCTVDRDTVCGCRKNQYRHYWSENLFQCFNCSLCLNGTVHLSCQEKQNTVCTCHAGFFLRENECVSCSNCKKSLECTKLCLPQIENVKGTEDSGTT

Consider ATROSAB (antibody), for which, in experiment [1], the IC50, Cell death induction [nM] (Kym-1 cells, 0.01 nM TNF) stood at 64.4 nM; the IC50, IL-6 [nM] (HeLa cells, 0.1 nM TNF) came out at 165 nM; the IC50, IL-8 [nM] (HT1080 cells, 0.1 nM TNF) amounted to 84.1 nM; the IL-8 Inhibition IC50 worked out at 97.8 nM. The substance also displayed an IL-8 Inhibition IC50 in experiment [2] of 136 nM. The EC50 in experiment [3] came to 0.09 nM. In experiment [4], the EC50 was found to be 0.4 nM.

As usually defined, the EC50 is the concentration needed to bring the measured effect to its halfway point. Low values mean a more potent agent, high ones a less potent agent.

Values taken from patent publication US20200172619A1.
